# The supplement of paper PMC7877785
# ± gives the uncertainty stated by the source.
# Assay: self-splicing fitness, log relative to wild type (ln ratio); higher = more splicing; Tetrahymena group I intron in knt gene, E. coli kanamycin selection, DiMSum; sequences stand for … in CUCUCU…GGAGGGAAAAGUUAUCAGGCAUGCACCUGGUAGCUAGUCUUUAAACCAAUAGAUUGCAUCGGUUUAAAAGGCAAGACCGUCAAAUUGCGGGAAAGGGGUCAACAGCCGUUCAGUACCAAGUCUCAGGGGAAACUUUGAGAUGGCCUUGCAAAGGGUAUGGUAAUAAGCUGACGGACAUGGUCCUAACCACGCAGCCAAGUCCUAAGUCAACAGAUCUUCUGUUGAUAUGGAUGCAGUUCACAGACUAAAUGUCGGUCGGGGAAGAUGUAUUCUUCUCAUAAGAUAUAGUCGGACCUCUCCUUAAUGGGAGCUAGCGGAUGAAGUGAUGCAACACUGGAGCCGCUGGGAACUAAUUUGUAUGCGAAAGUAUAUUGAUUAGUUUUGGAGUACUCGUGGUCG
# Method in brief: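 Pooled colonies went to amplicon sequencing on an Illumina HiSeq 2500 after six replicate transformations. The plates were LB agar with 100 μg/mL carbenicillin, 50 μM IPTG and 0.2% rhamnose, with or without 25 μg/mL kanamycin, incubated overnight at 37°C or 30°C. The E. coli BL21(DE3) library had all eight P1ex-region intron nucleotides randomised, the intron placed in the knt kanamycin-resistance gene on pET-22b(+). DiMSum fitness is the error-weighted combination of replicate fold changes, kanamycin against none, normalised to wild type.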
Sequence,self-splicing fitness (ln) (30 °C),self-splicing fitness (ln) (37 °C)
AUCUAGCAAUAUUACGACGA,-0.367 ± 0.12,-0.44 ± 0.12
AUCUAGCAAUAUUACGACGU,0.175 ± 0.057,0.669 ± 0.069
AUCUAGCAAUAUUACGCAAG,-1.46 ± 0.17,-1.29 ± 0.18
AUCUAGCAAUAUUACGCACG,-1.37 ± 0.15,-0.353 ± 0.14
AUCUAGCAAUAUUACGCCUG,-0.828 ± 0.16,-1.39 ± 0.23
AUCUAGCAAUAUUACGCCUU,-0.764 ± 0.073,0.116 ± 0.095
AUCUAGCAAUAUUACGCGGG,-3.32 ± 0.26,-2.12 ± 0.23
AUCUAGCAAUAUUACGCGUU,-1.76 ± 0.096,-0.994 ± 0.1
AUCUAGCAAUAUUACGCUCC,-0.7 ± 0.18,-0.736 ± 0.25
AUCUAGCAAUAUUACGCUGC,-2.92 ± 0.24,-1.66 ± 0.18
AUCUAGCAAUAUUACGCUUC,-3.91 ± 0.36,-2.03 ± 0.23
AUCUAGCAAUAUUACGGAAC,-4.03 ± 0.37,-1.75 ± 0.24
AUCUAGCAAUAUUACGGCCC,0.132 ± 0.2,-0.0846 ± 0.33
AUCUAGCAAUAUUACGGCUC,-0.871 ± 0.16,-0.185 ± 0.19
AUCUAGCAAUAUUACGGGAA,-0.643 ± 0.13,-0.903 ± 0.14
AUCUAGCAAUAUUACGGUCA,-1.31 ± 0.15,-0.841 ± 0.14
AUCUAGCAAUAUUACGUUAC,-1.99 ± 0.27,-1.74 ± 0.34
AUGAAGCAAUAUUACGAAGA,-1.9 ± 0.13,-0.83 ± 0.16
AUGAAGCAAUAUUACGAGAA,-3.53 ± 0.27,-1.07 ± 0.16
AUGAAGCAAUAUUACGAGCC,-3.01 ± 0.38,-3.27 ± 0.38
AUGAAGCAAUAUUACGAGGA,-1.44 ± 0.14,-2.6 ± 0.2
AUGAAGCAAUAUUACGAUGC,-1.95 ± 0.13,-0.813 ± 0.17
AUGAAGCAAUAUUACGCAGG,-0.47 ± 0.12,-0.916 ± 0.14
AUGAAGCAAUAUUACGCAUC,-4.84 ± 0.29,-2.45 ± 0.17

Sequence,self-splicing fitness (ln) (30 °C),self-splicing fitness (ln) (37 °C)
AUGAAGCAAUAUUACGCCCU,0.921 ± 0.15,0.202 ± 0.17
AUGAAGCAAUAUUACGCGAC,-2.1 ± 0.15,-1.96 ± 0.27
AUGAAGCAAUAUUACGCGAG,-0.689 ± 0.09,-0.225 ± 0.099
AUGAAGCAAUAUUACGCGAU,-2.89 ± 0.21,-1.59 ± 0.23
AUGAAGCAAUAUUACGGAAC,-0.855 ± 0.098,-1.24 ± 0.15
AUGAAGCAAUAUUACGGACC,-0.516 ± 0.22,0.108 ± 0.23
AUGAAGCAAUAUUACGGCCC,-0.0924 ± 0.12,0.156 ± 0.17
AUGAAGCAAUAUUACGGCUC,-0.602 ± 0.12,0.254 ± 0.13
AUGAAGCAAUAUUACGUACU,0.105 ± 0.096,0.581 ± 0.11
AUGAAGCAAUAUUACGUCUC,-1.1 ± 0.14,-1.22 ± 0.14
AUGAAGCAAUAUUACGUGCA,-0.0826 ± 0.093,0.364 ± 0.11
AUGAAGCAAUAUUACGUUAA,-1.51 ± 0.084,-0.908 ± 0.1
AUGAAGCAAUAUUACGUUAC,-1.96 ± 0.13,-2.38 ± 0.24
AUGAAGCAAUAUUACGUUAU,-0.343 ± 0.071,-0.555 ± 0.096
AUGCAGCAAUAUUACGAAAA,,-2.23 ± 0.42
AUGCAGCAAUAUUACGAAGU,-2 ± 0.15,-1.75 ± 0.12
AUGCAGCAAUAUUACGAUCC,-1.78 ± 0.22,-0.259 ± 0.29
AUGCAGCAAUAUUACGAUGG,-3.04 ± 0.21,-2.94 ± 0.27
AUGCAGCAAUAUUACGCAAU,-2.65 ± 0.12,-1.98 ± 0.13
AUGCAGCAAUAUUACGCAGC,,-1.91 ± 0.46
AUGCAGCAAUAUUACGCCAG,-2.18 ± 0.13,-1.23 ± 0.17
AUGCAGCAAUAUUACGCCGU,-1.25 ± 0.069,-0.859 ± 0.083
AUGCAGCAAUAUUACGCCUU,-0.919 ± 0.072,-0.304 ± 0.095
AUGCAGCAAUAUUACGCGCC,-0.788 ± 0.15,-0.038 ± 0.16

Sequence,self-splicing fitness (ln) (30 °C),self-splicing fitness (ln) (37 °C)
AUGCAGCAAUAUUACGCUAA,-0.813 ± 0.13,-0.31 ± 0.12
AUGCAGCAAUAUUACGUGGU,-2.7 ± 0.095,-2.18 ± 0.1
AUGGAGCAAUAUUACGACAG,-2.74 ± 0.28,-0.415 ± 0.28
AUGGAGCAAUAUUACGACGC,-1.44 ± 0.16,-0.789 ± 0.19
AUGGAGCAAUAUUACGAUCA,,-1.09 ± 0.25
AUGGAGCAAUAUUACGAUGC,-2.15 ± 0.37,-2.04 ± 0.35
AUGGAGCAAUAUUACGCAUG,-2.5 ± 0.34,-2.36 ± 0.25
AUGGAGCAAUAUUACGCCGA,-2.82 ± 0.32,-2.87 ± 0.48
AUGGAGCAAUAUUACGCGGA,-2.73 ± 0.29,-1.34 ± 0.22
AUGGAGCAAUAUUACGGAAU,-2.66 ± 0.32,-2.02 ± 0.47
AUGGAGCAAUAUUACGGCAU,-0.641 ± 0.16,-0.53 ± 0.16
AUGGAGCAAUAUUACGGCCA,-1.49 ± 0.18,-0.494 ± 0.21
AUGGAGCAAUAUUACGGCCC,-1.13 ± 0.24,-1.43 ± 0.31
AUGGAGCAAUAUUACGGGCG,-3.21 ± 0.26,-2.63 ± 0.44
AUGGAGCAAUAUUACGGUAG,-3.61 ± 0.33,-2.51 ± 0.41
AUGGAGCAAUAUUACGGUCA,-2.19 ± 0.24,-0.926 ± 0.2
AUGGAGCAAUAUUACGUCCC,0.0307 ± 0.46,-0.013 ± 0.42
AUGGAGCAAUAUUACGUGGG,-3.61 ± 0.37,-0.89 ± 0.27
AUGGAGCAAUAUUACGUUUC,-3.47 ± 0.21,-2.68 ± 0.26
AUGUAGCAAUAUUACGACCU,-0.739 ± 0.28,-0.136 ± 0.34
AUGUAGCAAUAUUACGAGUC,-2.95 ± 0.23,-3.28 ± 0.4
AUGUAGCAAUAUUACGCCAG,-3.46 ± 0.31,-1.05 ± 0.31
AUGUAGCAAUAUUACGCGAU,-2.09 ± 0.2,-2.55 ± 0.24
AUGUAGCAAUAUUACGCGCU,-0.77 ± 0.14,-0.00271 ± 0.15

Sequence,self-splicing fitness (ln) (30 °C),self-splicing fitness (ln) (37 °C)
AUGUAGCAAUAUUACGCGGC,-4.15 ± 0.4,-3.45 ± 0.27
AUGUAGCAAUAUUACGCUCA,-0.372 ± 0.075,-0.2 ± 0.1
AUGUAGCAAUAUUACGCUCC,-0.373 ± 0.28,-0.973 ± 0.45
AUGUAGCAAUAUUACGCUGU,-2.92 ± 0.12,-1.12 ± 0.11
AUGUAGCAAUAUUACGCUUU,-3.23 ± 0.15,-1.29 ± 0.11
AUGUAGCAAUAUUACGGCGG,-0.915 ± 0.19,-1.14 ± 0.23
AUGUAGCAAUAUUACGGUAG,-4.38 ± 0.32,-3.33 ± 0.42
AUGUAGCAAUAUUACGGUCC,-1.32 ± 0.1,0.341 ± 0.12
AUGUAGCAAUAUUACGUCAA,-2.9 ± 0.3,-2.98 ± 0.35
AUGUAGCAAUAUUACGUCGU,-3.28 ± 0.24,-0.241 ± 0.12
AUGUAGCAAUAUUACGUGGU,,-1.53 ± 0.17
AUGUAGCAAUAUUACGUGUG,-3.33 ± 0.23,-2.53 ± 0.15
AUUAAGCAAUAUUACGAACA,-1.43 ± 0.14,-0.718 ± 0.17
AUUAAGCAAUAUUACGACCU,-0.144 ± 0.17,0.145 ± 0.18
AUUAAGCAAUAUUACGACUA,-1.05 ± 0.12,-0.207 ± 0.15
AUUAAGCAAUAUUACGAUAC,-1.93 ± 0.11,-0.885 ± 0.15
AUUAAGCAAUAUUACGAUUC,-1.89 ± 0.1,-0.797 ± 0.12
AUUAAGCAAUAUUACGAUUU,-0.227 ± 0.091,1.04 ± 0.12
AUUAAGCAAUAUUACGCACC,-1.52 ± 0.19,0.0961 ± 0.28
AUUAAGCAAUAUUACGCAGU,-3.15 ± 0.21,-2.48 ± 0.21
AUUAAGCAAUAUUACGCCCC,-1.21 ± 0.31,0.0189 ± 0.48
AUUAAGCAAUAUUACGCUAU,-3.62 ± 0.26,-1.73 ± 0.26
AUUAAGCAAUAUUACGGAAA,-2.98 ± 0.29,-1.77 ± 0.26
AUUAAGCAAUAUUACGGACU,0.271 ± 0.11,0.324 ± 0.15
